The text below walks through data of PMC8476643 (Nature Communications, 2021).

A value given as a limit tells only on which side of the number the result lay.

Assay [1] deals with T1, SARS-CoV-2 receptor-binding domain (RBD) (SARS-CoV-2 Wuhan-Hu-1 (GenBank …, UniProt P0DTC2)).
T1 construct: source: High Five cells (baculovirus, pAcgp67B), purified from the medium (Ni-sepharose)
Put plainly: SPR. Particulars: both partners purified.

Assay [2] concerns the target T1, SARS-CoV-2 receptor-binding domain (RBD). The assay can be described thus: SPR. To be noted: both partners purified. The source holds these as a separate data set.
Assay [3] deals with T2, SARS-CoV receptor-binding domain (RBD) (SARS-CoV (GenBank NC_004718.3), UniProt P59594).
T2 construct: also called SARS-CoV RBD; source: High Five cells (baculovirus, pAcgp67B), purified from the medium (Ni-sepharose)
Put plainly: SPR. To be noted: both partners purified.

In assay [4] the target is T1, SARS-CoV-2 receptor-binding domain (RBD). Put plainly: cell-based or functional assay.
The target in assay [5] is T2, SARS-CoV receptor-binding domain (RBD). The assay can be described thus: SPR. To be noted: both partners purified. This is another data set of the same source.

B1: 7D6 monoclonal antibody (antibody, V domains shown)
VH: EVQLQQSGAELVRPGASVKLSCTASGFNIKDTYIHWVKQRPEQGLEWIGRIDPGDGDTEYDPSFQGKATITADTSSNTAYLELSSLTSEDTAVYYCTRFYDYVDYGMDYWGQGTSVTVSS
VL: DIQMTQSPASLSASVGETVTITCRASGNIHNYLAWYQQKQGKSPQLLVYNAKTLADGVPSRFSGSGSGTQYSLKINSLQPEDFGSYYCQHFWSTPPWTFGGGTKLEVK
notes: also called mAb 7D6; source: mouse hybridoma, ascites, purified (protein A agarose); copies: 2 + 2
In assay [1], B1 came in with a dissociation constant Kd of 0.00265 nM. In assay [2], the Kd was below 0.01 nM, the koff is 1.1e-06 s⁻¹ and the on-rate constant (kon) was 180000 M⁻¹ s⁻¹. In assay [3], this molecule returned a Kd of 0.03 nM, an off-rate (koff) of 1.7e-06 s⁻¹ and an on-rate (kon) of 58500 M⁻¹ s⁻¹. For the same molecule, in assay [4], the “Fig. S4: IC50 of neutralisation, LV-SARS-CoV-2 WT” value came out at 5.98 µg/mL.

B2: 6D6 monoclonal antibody (antibody, V domains shown)
VH: EVQLQQSGAELVKPGASVKLSCTTSGFNIIDTYMHWVKQRPEEGLEWIGGIDPVNGNSEYDPKFQDKATITADTSSNTAYLHLSRLTSEDTAVYYCASAHYYGSSSSFPYWGQGTLVTVSA
VL: DIVMTQSQKFMSTSVGDRVSVTCKASQNVGTHVAWYQQKPGQSPKALIYSASYRYSGVPDRFTGSGVGTDFTLTITNVQSEDLAEYFCQQYNSYFTFGSGTKLEIK
notes: also called mAb 6D6; source: mouse hybridoma, ascites, purified (protein A agarose); copies: 2 + 2
B2 came in with an equilibrium dissociation constant (Kd) in assay [5] of 3.72 nM. Also, in assay [2], the Kd was 0.01 nM, the off-rate constant (koff) stood at 1.5e-06 s⁻¹ and the on-rate (kon) worked out at 115000 M⁻¹ s⁻¹. In assay [3], this molecule yielded a Kd of 0.37 nM, an off-rate (koff) of 6.3e-06 s⁻¹ and an association rate constant (kon) of 17000 M⁻¹ s⁻¹. In addition, the “Fig. S4: IC50 of neutralisation, LV-SARS-CoV-2 WT” value in assay [4] came to 10.9 µg/mL.

One may read the Kd as the free concentration of one partner at which half of the binding sites on the other are occupied at equilibrium, for simple one-to-one binding. A high value points to weaker binding. Usually koff stands for a measure of how fast the partners let go of each other. Lower therefore signals slow dissociation. As a reminder, the kon is a measure of how fast the partners come together. A high value points to fast association.
